Results from the DeepSol protein solubility set.

Assay: soluble on expression in E. coli; label from the status in PepcDB or PDB records

Row | Sequence | soluble on expression in E. coli
1 | MIRLLTLLALLLPVPGWAGCRQALALGLDVSGSVDGREYRLQLDGLAAALLAPEVQARLLAMPGHPIRLAVYEWSEPGFQRLILPWHQIDTAADLETVAATLRTTRRAAAPPGTAIGPAMHHGAALLAQQPDCWKRTLDLSGDGKHNMGPHPRVVKAALEGSGLTVNALVIGADSTTFTDLRQTQIGELSAYYGAWVILGPDAFVEVALGYEDYQAAMERKLRRELEGLVLSALPTRAATQLHAPVLPWPVLPQAAALEHHHHHH | not soluble
2 | MLDKLRSRLVHAGPSLMSVPVKLTPFALKRQVLEQVLSWQFRQALADGELEFLEGRWLSIHVRDIDLKWYTTVENEKLIVSQQADADVSFSADASDLLMIAARKQDPDTLFFQRRLVIEGDTELGLYVKNLMDAIELEQMPKALRVMLLQLADFVEAGMKNSPETKQTSVGEPC | not soluble
3 | MSDPYPATEAHAQRAAKSPPKSLLDRLLSLVRREPEDREGIKAILEAAHERELLDAESYAMIKGALAVSERTVADIMVPRSRMDLLDISQPLPQLLATIIETAHSRFPVYEDDRDNIIGILLAKDLLRYMLEPALDIRSLVRPAVFIPEVKRLNVLLREFRASRNHLAIVIDEHGGISGLVTMEDVLEQIVGDIEDEFDEDEEESIFPEGENQWRLTASTDISHFNATFATDLPDDEYDSVGGWLGGQLGRIPRRGDSADHDGLHIEVVRADARRALWLRVRRNAGAQPPASAAE | soluble
4 | MSLRMRVGKFDYLNNFLPYYFLNEKVEIVEANPREMASMLLSGRIDYAPVPAFFYLKNRERLRHYEFCVASEGKVLSVVVVSRKKELDDGSIAVTPHSLTSVNLLKILLAERGMKNMLVEVNTAKASEMLELCPHALVIGDEAIKARMIYKVVMDLGEEWYELTSLPAVFGISASLKETNAEEMDRKILMATEEGYRRFDEVVRAAEKAFKMPREFLEEYFRTLKFRLSSKERRGLDEFEKYCRDYEGHHHHHH | soluble
5 | MCESDKLHDEINVIDIKIYPNRFLKPKTTELLLNKICGLEGYVRFLIHGPSLPKKVFYGPGKGHDVNHGDRKSILVNGNGIDLKVMVGEIIITVELDKFNDFMNQLEDILTETLSVEYSLLVGIFTRTTSTISDYLKYGIGFENLIDKRYIGLIDSRARSSESISIIKLEHHHHHH | not soluble
6 | MSLICSISNEVPEHPCVSPVSNHVYERRLIEKYIAENGTDPINNQPLSEEQLIDIKVAHPIRPKPPSATSIPAILKALQDEWDAVMLHSFTLRQQLQTTRQELSHALYQHDAACRVIARLTKEVTAAREALATLKPQAGLIVPQAVPSSQPSVVGAGEPMDLGELVGMTPEIIQKLQDKATVLTTERKKRGKTVPEELVKPEELSKYRQVASHVGLHSASIPGILALDLCPSDTNKILTGGADKNVVVFDKSSEQILATLKGHTKKVTSVVFHPSQDLVFSASPDATIRIWSVPNASCVQVVRAHESAVTGLSLHATGDYLLSSSDDQYWAFSDIQTGRVLTKVTDETSGCSLTCAQFHPDGLIFGTGTMDSQIKIWDLKERTNVANFPGHSGPITSIAFSENGYYLATAADDSSVKLWDLRKLKNFKTLQLDNNFEVKSLIFDQSGTYLALGGTDVQIYICKQWTEILHFTEHSGLTTGVAFGHHAKFIASTGMDRSLKFYSL | soluble
7 | MRSQRVFTTIDTHTGGNPTRTLISGLPKLIGETMAEKMLHMKKEYDWIRKLLMNEPRGHDVMSGALLTDPCHPEADIGVIYIETGGYLPMCGHDTIGVCTALVESGLIPVVEPITSLKLDTPAGLVEVDIAVQDGKAKEVSFCNIPAFLLKNITVQVKDIGTIEADIAYGGNFYAIIDAKSVGLELIPENASTIIDKAIHIRNTINEKFEIIHPEYSFIRGLTHVEFYTDATHECAHVKNTVIVPPGGIDRSPCGTGTSAKLAVLYAQKEIKIGEEFIHESIVGSLFKGYVVNTTHVENIEAVITKITGSAWLMGMHKFFYNEMDPLKEGFLLIPPMEHETEDIKMAGDPNSLEHHHHHH | soluble
8 | MRKGGKGYFLTIRRDYVTVSYYLKYVKDIPLEFREIIDIFNNHKFEQYTQEQINKYTYTCNVRKIEDIDKYDEKNPTKFHEYTRGEACRCQTYNYFKDDEFIKRAKLKCIYYNMLFTESATVYSRHCPIIDLMHFAVYDIEYPPIFNTIVNITIEEYYYNDVSSVLNNKSDLVTKEKKYQLNDTITEIRDDYFDLWLFLKGETHGKRTLVNLSNDYIVIPSSPINNRDVIASDITRNCGLSQNSPLLKGCNYSSICNIMHPCLRKAMMLPKYMFDLSGKTCGKLGVSLNT | not soluble
9 | MSPIEKSSKLENVCYDIRGPVLKEAKRLEEEGNKVLKLNIGNPAPFGFDAPDEILVDVIRNLPTAQGYCDSKGLYSARKAIMQHYQARGMRDVTVEDIYIGNGVSELIVQAMQALLNSGDEMLVPAPDYPLWTAAVSLSSGKAVHYLCDESSDWFPDLDDIRAKITPRTRGIVIINPNNPTGAVYSKELLMEIVEIARQHNLIIFADEIYDKILYDDAEHHSIAPLAPDLLTITFNGLSKTYRVAGFRQGWMVLNGPKKHAKGYIEGLEMLASMRLCANVPAQHAIQTALGGYQSISEFITPGGRLYEQRNRAWELINDIPGVSCVKPRGALYMFPKIDAKRFNIHDDQKMVLDFLLQEKVLLVQGTAFNWPWPDHFRIVTLPRVDDIELSLSKFARFLSGYHQL | soluble
10 | MIINIRKFREHDLKRVMEIEKESFDKNYPEFLMMHIYTSFPDGFLVAETEDGKIVGYIIALMEWGNGHVVSIAVDSAYQNYGIGNALLSATENFLFNECHAKHCVLEVRFDNKKAREFYYKRNYVDRKVLYNYYDDGADAILMIKRRFDLSGNYPIFVNMW | not soluble
11 | MTSIHVQVPATTANIGAGFDCLGAALSLHNQFQFRLAGESEPFFSLELVGADVETQKLEATADNLLYRAFAKVFATLGQPVPHVNIAIDLKVPLSRGLGSSATAIVGGLVGANALAGSPLSQREIMNLAIEMEGHPDNVVPALLGGCQLSVKHQQDWVI | not soluble
12 | MSWSDIINNNLIGSGNVSKAAILGFDGAVWAKSDNFNISVEEAVAAGKAFTSLDALLGTGLRLEGQKFLVLNADNDRIIGKQGGSGFFIYKTIQAVIISIYEKGLQPEMCSKTTGALADYFRSIKY | not soluble
13 | MAKKLSSPKEYKEFIDKFDVFLFDCDGVLWSGSKPIPGVTDTMKLLRSLGKQIIFVSNNSTKSRETYMNKINEHGIAAKLEEIYPSAYSSATYVKKVLKLPADKKVFVLGEAGIEDELDRVGVAHIGGTDPSLRRALASEDVEKIGPDPSVGAVLCGMDMHVTYLKYCMAFQYLQDPNCAFLLTNQDSTFPTNGKFLPGSGAISYPLIFSTGRQPKILGKPYDEMMEAIIANVNFDRKKACFVGDRLNTDIQFAKNSNLGGSLLVLTGVSKEEEILEKDAPVVPDYYVESLAKLAETA | soluble
14 | MYKLDHLNHNTLDESSLELHETPKGYTNVALFGLDSRDGELSGGVRSDSIMIVSINNKTGDVKIISVYRDTLLKQQDGSYEKANAAYSFGGPQEAVAMLNRNLDLDITKYASVNFNSLADIIDILGGVEVELTSEEIFWLNGYTAETSQVVGRQTHTLDENSPGVHNLDGIQAVSYTRIRYTAGDDFKRAERQRIILQKMIQKLKTAGPVKWNKILDQVLPEISTNMTTPDIMKLGLNIFRYKIGETKGFPFDITTSENVIGLEGSYAVAIGHADNVRQLHEQLFGETGYQPSDEVQQISQDVAYLTGVLEHHHHHH | soluble
15 | MNVGILGIGRYVPEKVVTNHDLEKIMDTSDEWIRTRTGIAERRIADDTIDTSYMAVEASKKALEDAGISGEDIDLILVATVTPDRAFPAVACVIQEAIGAKHAAAMDLSAACAGFMYGMITAQQFIQTGTYKNVLVVGSDKLSKIVDWNDRNTAVLFGDGAGAIVMGAVSEGKGVLSFELGADGSGGKHLYQDEYVMMNGREVFKFAVRQLGDSCLRVLDKAGLTKEDVDFLVPHQANIRIMESARERLNLPQEKMSMTIEKFGNTSASSIPIAMVEELQNGRIQDGDLIILVGFGGGLTWGAVALRWGK | not soluble
16 | MNEKNIKHSQNFITSKHNIDKIMTNIRLNEHDNIFEIGSGKGHFTLELVQRCNFVTAIEIDHKLCKTTENKLVDHDNFQVLNKDILQFKFPKNQSYKIFGNIPYNISTDIIRKIVFDSIADEIYLIVEYGFAKRLLNTKRSLALFLMAEVDISILSMVPREYFHPKPKVNSSLIRLNRKKSRISHKDKQKYNYFVMKWVNKEYKKIFTKNQFNNSLKHAGIDDLNNISFEQFLSLFNSYKLFNK | soluble
17 | KTDDPRFKIYKLAYSAFLSRITVKDVIWNKDKGIKLMDGYYWDFINDPHLLVAGGTGGGKTVLLRSILRCLAEIGVCDICDPKRADFVTMSDLSAFEGRIAFEKADIIEKFENAVTIMFARYDFVRNEMKRLGHKDMKKFYDYGLEPYFFVCDEYNALMSSLSYQEREIVDNAFTQYILLGRQVGCNAIIAMQKPSA | not soluble
18 | SAALAGVFVWDEERIQEEELQRSINEMKRLEEMSNMFQSSGVQHHPPEPKAQTEGNEDSEGKEQRWEMVMDKKHFKLWRRPITGTHLYQYRVFGTYTDVTPRQFFNVQLDTEYRKKWDALVIKLEVIERDVVSGSEVLHWVTHFPYPMYSRDYVYVRRYSVDQENNMMVLVSRAVEHPSVPESPEFVRVRSYESQMVIRPHKSFDENGFDYLLTYSDNPQTVFPRYCVSWMVSSGMPDFLEKLHMATLKAKNMEIKVKDYISAKPLEMSSEAKATSQSSERKNEGSCGPARIEYA | soluble
19 | SHMAPEDPNEEAVSQIFPDSVMLAVQEGIDLLTFPPAPGSPE | soluble
20 | MGSDKIHHHHHHLTDAEIDASFNPYQAGPTTSPGITPGMKIDKSNAQKFRDIIDPATYALIEQGKLEFPVEETHSIALHPNYIAATKKHSSQVKLGSATGTIEGYVAGRPFPGKPDKSDPRAGEKLAFNYKYAQIVGDSGRIYPFIWQYKDARSGKVERQLEFDFNFLSFKHRTTQLPTADIEPNPSKFYRGIYLKVLSPQDLKNTQLLIQRFDDDTKLDDSYLYLGFQRRVRRLATGQTTDSFLGSDLMIEDFEGYNGRVPDMDWKYVETKVMLLPVYRHSEWKKTEPRDQMGYGQVQFDGQAQCFQNIPWSLRVVHVIEGVPVESRNPIGKRILYMDAQTSIFPIINMYDRKGALWKRWAIGFSDSAYHAPANQAAGIAIYTSASMLDVQAQHCTTLQLRMISDPALSPPSIFSVQNLRGGD | not soluble
21 | MSLKNLILAIESSCDDSSIAIIDKNTLECKFHKKISQELDHSIYGGVVPELAARLHSEALPKMLKQCKEHFKNLCAIAVTNEPGLSVSLLSGISMAKTLASALNLPLIPINHLKGHIYSLFLEEKISLDMGILLVSGGHTMVLYLKDDASLELLASTNDDSFGESFDKVAKMMNLGYPGGVIIENLAKNAKLKNISFNTPLKHSKELAFSFSGLKNAVRLEILKHENLNEDTKAEIAYAFENTACDHIMDKLEKIFNLYKFKNFGVVGGASANLNLRSRLQNLCQKYNANLKLAPLKFCSDNALMIARAAVDAYEKKEFVSVEEDILSPKNKNFSRIEGHHHHHH | soluble
22 | MGHHHHHHSHMAERETETSNSESKQDKAASSKEKNGCNANSFEGSSTTKSEESITVSDKENETCLADQETGSKNIVSCDSNIGADKVEKKKQIQHVCQEMELKMCQSSENIILSDQIKDHNSSEARFSSKNIKDLRLASDNVSIDQFLRKRHEPESVSSDVSEQGSIHLEPLTPSEVLEYEATEILQKGSGDPSAKTDEVVSDQTDDIPGGNNPSTTEATVDLEDEKERS | soluble
23 | MQAKIKNKRVLVKFSGEALAGDNQFGIDIHVLDHIAKEIKSLVENDIEVGIVIGGGNIIRGVSAAQGGIIRRTSGDYMGMLATVINAVAMQEALEHIGLDTRVQSAIEIKEICESYIYRKAIRHLEKGRVVIFGAGTGNPFFTTDTAATLRAIEIGSDLIIKATKVDGIYDKDPNKFKDAKKLDTLSYNDALIGDIEVMDDTAISLAKDNKLPIVVCNMFKKGNLLQVIKHQQGVFSMVKLEHHHHHH | not soluble
